Reference: the supplement of paper PMC9876800

Tested on: peptide library, one residue held at a place counted from the S/T acceptor
Experiment: relative phosphorylation of the sub-library (ratio to the mean residue at this position); human; higher = residue favoured
Procedure, shortened: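 Human or orthologue kinase constructs, purified and recombinant, were incubated under kinase-specific conditions in 384-well plates with biotinylated degenerate peptide sub-libraries. Each sub-library fixed one residue at one position around a central Ser/Thr. Incubations lasted 90 min with peptides at 50 μM and 50 μM ATP spiked with γ-32P-ATP, after which spots on streptavidin membranes were phosphorimaged and quantified by densitometry. Relative sub-library phosphorylation is a ratio to the mean residue at that position.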

Chain of AURKB, construct: Full length (Q96GD4 whole entry, looked up): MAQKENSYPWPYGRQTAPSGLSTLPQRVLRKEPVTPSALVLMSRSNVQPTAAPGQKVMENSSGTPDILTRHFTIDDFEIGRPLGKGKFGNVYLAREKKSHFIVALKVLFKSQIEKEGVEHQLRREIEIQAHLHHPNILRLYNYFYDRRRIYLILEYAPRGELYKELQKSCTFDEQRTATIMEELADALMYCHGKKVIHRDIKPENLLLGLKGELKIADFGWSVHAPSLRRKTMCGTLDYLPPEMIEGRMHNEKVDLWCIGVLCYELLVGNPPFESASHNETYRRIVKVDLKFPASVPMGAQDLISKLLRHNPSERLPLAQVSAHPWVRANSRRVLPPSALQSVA
Chain of GRK5, construct: Full length (P34947 whole entry, looked up): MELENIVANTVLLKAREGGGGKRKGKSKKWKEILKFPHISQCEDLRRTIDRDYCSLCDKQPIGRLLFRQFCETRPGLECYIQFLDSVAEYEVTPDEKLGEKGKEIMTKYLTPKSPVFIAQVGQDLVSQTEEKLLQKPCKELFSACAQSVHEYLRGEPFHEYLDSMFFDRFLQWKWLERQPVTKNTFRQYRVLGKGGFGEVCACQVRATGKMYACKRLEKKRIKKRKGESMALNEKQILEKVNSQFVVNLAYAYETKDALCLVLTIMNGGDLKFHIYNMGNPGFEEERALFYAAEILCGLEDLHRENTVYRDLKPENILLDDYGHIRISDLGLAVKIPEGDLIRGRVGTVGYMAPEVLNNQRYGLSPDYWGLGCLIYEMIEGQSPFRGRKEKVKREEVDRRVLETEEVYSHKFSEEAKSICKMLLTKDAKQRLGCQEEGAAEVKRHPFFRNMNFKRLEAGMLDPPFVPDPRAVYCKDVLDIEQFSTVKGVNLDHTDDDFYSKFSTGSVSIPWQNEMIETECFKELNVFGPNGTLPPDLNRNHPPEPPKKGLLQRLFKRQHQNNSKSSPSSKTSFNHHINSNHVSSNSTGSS
Chain of EIF2AK1, construct: Full length (Q9BQI3 whole entry, looked up): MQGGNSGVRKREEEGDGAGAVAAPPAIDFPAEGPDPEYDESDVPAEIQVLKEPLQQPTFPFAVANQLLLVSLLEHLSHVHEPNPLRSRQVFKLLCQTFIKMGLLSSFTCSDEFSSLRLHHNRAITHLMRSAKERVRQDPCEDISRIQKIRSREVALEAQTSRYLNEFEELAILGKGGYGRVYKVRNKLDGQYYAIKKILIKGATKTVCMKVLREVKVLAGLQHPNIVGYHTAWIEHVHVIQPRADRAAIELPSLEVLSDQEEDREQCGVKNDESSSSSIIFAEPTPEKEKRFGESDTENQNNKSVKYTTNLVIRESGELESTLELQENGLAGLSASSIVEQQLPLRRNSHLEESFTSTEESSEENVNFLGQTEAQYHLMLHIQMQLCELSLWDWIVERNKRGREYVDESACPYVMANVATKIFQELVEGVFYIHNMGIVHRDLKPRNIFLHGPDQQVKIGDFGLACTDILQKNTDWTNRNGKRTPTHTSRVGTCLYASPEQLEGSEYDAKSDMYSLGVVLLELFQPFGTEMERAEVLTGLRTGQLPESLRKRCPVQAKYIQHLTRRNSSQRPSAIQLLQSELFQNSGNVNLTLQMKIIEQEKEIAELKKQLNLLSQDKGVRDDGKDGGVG
Chain of CLK3, construct: Full length (P49761 whole entry, looked up): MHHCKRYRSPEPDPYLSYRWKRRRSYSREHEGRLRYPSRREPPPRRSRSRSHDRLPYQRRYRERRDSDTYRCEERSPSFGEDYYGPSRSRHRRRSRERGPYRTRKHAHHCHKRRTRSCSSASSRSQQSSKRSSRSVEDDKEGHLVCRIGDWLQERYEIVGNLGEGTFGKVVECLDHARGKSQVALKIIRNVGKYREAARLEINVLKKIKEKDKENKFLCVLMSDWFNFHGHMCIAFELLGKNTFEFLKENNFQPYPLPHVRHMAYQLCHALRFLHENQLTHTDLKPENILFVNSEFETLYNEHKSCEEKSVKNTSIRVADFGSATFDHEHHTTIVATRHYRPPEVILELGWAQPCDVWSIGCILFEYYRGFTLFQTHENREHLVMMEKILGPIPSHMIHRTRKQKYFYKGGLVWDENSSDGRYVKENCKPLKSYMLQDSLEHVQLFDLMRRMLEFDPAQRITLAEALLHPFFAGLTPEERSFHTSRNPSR

EIF2AK1, construct: Full length (from UniProt Q9BQI3)
relative phosphorylation
Settings	at +1	at +2	at +3	at +4	at -1	at -2	at -3	at -4	at -5
A fixed	0.697	0.999	0.699	0.762	0.698	0.907	1.04	0.971	0.979
D fixed	0.365	0.489	0.403	0.602	1.26	3.35	1.11	0.87	0.672
E fixed	0.358	0.382	0.388	0.565	1.01	2.47	0.857	0.724	0.619
F fixed	1.5	0.874	1.3	0.975	1.09	0.752	0.955	1.15	1.31
G fixed	1.21	0.923	1.09	0.945	0.469	0.846	0.936	0.89	0.897
H fixed	0.788	1.24	1.12	1.01	1.56	1.1	1.04	1.03	0.962
I fixed	1.24	0.954	0.788	0.809	1.19	0.606	1.09	1.1	1.29
K fixed	0.975	1.74	1.59	1.49	0.796	0.648	0.864	0.998	1
L fixed	1.08	0.747	0.904	0.936	1.15	0.56	1.07	1.06	1.08
M fixed	1.77	0.895	0.938	0.893	1.16	0.726	1.29	1.07	1.04
N fixed	0.991	1.12	0.808	0.964	1.14	0.783	0.904	0.826	0.728
P fixed	0.293	0.692	0.917	0.893	0.374	0.581	0.695	0.73	0.79
Q fixed	1.02	0.889	0.77	0.923	0.761	0.809	0.842	0.751	0.696
R fixed	1.79	1.99	2.1	1.9	1.07	0.73	0.958	1.03	1.16
V fixed	0.705	0.903	0.733	0.612	1.07	0.58	0.731	0.93	1.06
W fixed	1.02	0.918	1.26	1.57	0.731	0.787	1.23	1.59	1.44
Y fixed	1.2	1.25	1.19	1.15	1.46	0.764	1.38	1.28	1.27
pThr fixed	0.374	0.484	0.489	0.601	0.504	0.816	0.761	0.647	0.631
pTyr fixed	0.536	0.481	0.569	0.607	2.17	0.943	0.981	0.732	0.792

AURKB, construct: Full length (from UniProt Q96GD4)
relative phosphorylation
Settings	at +1	at +2	at +3	at +4	at -1	at -2	at -3	at -4	at -5
A fixed	0.803	0.959	0.784	0.784	0.651	0.28	0.727	1.01	1.08
D fixed	0.673	0.507	0.523	0.986	0.489	0.176	0.485	0.629	0.734
E fixed	0.611	0.427	0.498	0.727	0.433	0.183	0.422	0.653	0.511
F fixed	1.34	1.05	1.35	0.856	0.678	0.247	0.633	0.724	0.867
G fixed	1.11	1.59	1.3	1.06	0.553	0.381	0.954	1.17	1.24
H fixed	0.933	1.6	1.51	1.09	0.971	0.542	1.02	1.03	1.06
I fixed	1.21	0.911	0.957	0.869	0.735	0.217	0.553	0.709	0.855
K fixed	0.78	0.77	0.955	1.13	2.06	2.28	2.2	1.8	1.81
L fixed	1.49	0.948	1.14	0.989	1.23	0.25	0.554	0.738	0.779
M fixed	1.59	0.864	0.901	1.06	0.97	0.243	0.661	0.829	0.786
N fixed	1.33	1.04	0.981	1.08	0.788	0.377	0.784	0.844	0.966
P fixed	0.212	1.07	1.1	1.32	0.917	0.327	0.9	0.953	0.985
Q fixed	1.18	1.13	0.923	1.32	1.08	0.528	0.775	0.849	0.911
R fixed	1.05	0.972	0.968	1.01	2.98	10.2	4.37	2.72	1.9
V fixed	0.82	0.897	0.844	0.823	0.827	0.207	0.564	0.687	0.762
W fixed	0.932	1.05	1.23	1.17	0.605	0.287	0.735	0.855	0.931
Y fixed	0.922	1.22	1.05	0.734	1.04	0.276	0.665	0.798	0.831
pThr fixed	0.88	0.581	0.555	1.08	0.413	0.314	0.591	0.691	0.716
pTyr fixed	0.59	0.435	0.847	0.784	0.461	0.272	0.62	0.556	0.66

CLK3, construct: Full length (from UniProt P49761)
relative phosphorylation
Settings	at +1	at +2	at +3	at +4	at -1	at -2	at -3	at -4	at -5
A fixed	0.914	1.22	0.84	1.18	0.969	1.52	0.79	0.812	1.06
D fixed	0.555	1.69	0.683	1.62	0.872	1.26	1.43	1.4	1.87
E fixed	1.27	1.91	0.622	1.34	0.915	1.8	1.19	1.38	1.04
F fixed	0.282	0.536	0.348	0.694	0.306	0.342	0.339	0.516	0.773
G fixed	0.984	0.987	0.917	0.938	1.03	1.35	0.853	1.1	0.928
H fixed	0.735	0.971	1.07	0.869	0.799	0.732	0.607	0.885	0.899
I fixed	0.382	0.381	0.47	0.681	0.203	0.33	0.282	0.417	0.523
K fixed	2.02	1.6	3.25	2.08	2.62	1.33	2.38	1.38	1.53
L fixed	0.478	0.506	0.438	0.748	0.376	0.307	0.31	0.492	0.599
M fixed	0.659	0.574	0.424	0.724	0.405	0.39	0.359	0.613	0.492
N fixed	1.06	1.03	1.1	0.885	1.55	0.853	0.779	0.961	0.846
P fixed	4.92	1.69	1.81	0.963	2.15	1.9	1.76	1.87	0.949
Q fixed	0.983	0.898	0.707	1.01	1.62	0.904	0.852	0.996	0.973
R fixed	0.409	1.35	2.93	1.1	2.1	2.72	3.78	2.05	2.05
V fixed	0.619	0.52	0.457	0.796	0.367	0.432	0.436	0.535	0.735
W fixed	0.368	0.628	0.483	0.732	0.37	0.39	0.457	0.879	1.07
Y fixed	0.368	0.517	0.439	0.649	0.348	0.435	0.403	0.704	0.674
pThr fixed	0.887	2.44	0.951	2.16	0.555	0.817	1.05	1.27	1.12
pTyr fixed	1.23	0.956	0.877	1.3	1.1	0.87	0.997	1.05	0.98

GRK5, construct: Full length (from UniProt P34947)
relative phosphorylation
Settings	at +1	at +2	at +3	at +4	at -1	at -2	at -3	at -4	at -5
A fixed	0.822	1.35	0.828	0.969	0.728	0.802	0.852	1.03	1.06
D fixed	0.996	1.03	1.73	1.58	1.08	0.951	1.27	1.28	1.27
E fixed	2.19	0.721	1.96	1.25	0.863	1.01	1.19	1.15	1.05
F fixed	0.966	0.879	1.06	0.823	0.867	1.67	0.85	0.912	0.967
G fixed	0.768	1.06	0.998	0.976	0.694	0.932	1.02	1.08	1.16
H fixed	0.895	0.953	1.05	0.964	1.7	0.88	1.17	0.932	1.03
I fixed	1.01	1.15	0.61	0.762	0.732	0.735	0.828	0.863	0.892
K fixed	0.804	0.947	0.767	1.04	0.909	0.871	0.788	0.831	0.861
L fixed	0.81	0.735	0.717	0.662	0.874	0.765	0.707	0.891	0.82
M fixed	1.04	0.841	0.724	0.723	0.829	0.738	0.792	0.887	0.817
N fixed	0.888	0.905	0.721	0.911	1.19	0.889	1.04	0.984	0.94
P fixed	0.564	0.73	0.997	1.48	0.986	0.838	0.977	1.19	1.02
Q fixed	1.21	0.74	0.808	1.01	0.872	0.737	0.867	0.85	0.789
R fixed	1.13	1.12	0.927	0.899	1.12	1.05	1.04	0.87	0.806
V fixed	1.06	1.51	0.705	0.867	1.07	0.751	1.5	0.955	1.06
W fixed	0.944	1.3	1.35	1.1	0.933	2.08	1.13	1.23	1.32
Y fixed	0.898	1.03	1.06	0.982	1.55	1.3	0.969	1.08	1.13
pThr fixed	2.07	0.82	1.27	2.47	0.587	1.43	2.65	1.75	1.36
pTyr fixed	2.19	0.868	1.08	1.37	0.964	2.77	2.56	2.29	1.88
